The values below come from US20160207991A1.

Assay [1] concerns the target human brain-derived neurotrophic factor (BDNF) (human) (UniProt P23560). The experiment in a line: cell-based or functional assay.
Assay [2] shares this target. Briefly: cell-based or functional assay. This is another data set of the same source.

Read-outs that look alike come from different tables or passages of the source.

Chain of human brain-derived neurotrophic factor (BDNF) (human) (P23560 129-247 limits assumed): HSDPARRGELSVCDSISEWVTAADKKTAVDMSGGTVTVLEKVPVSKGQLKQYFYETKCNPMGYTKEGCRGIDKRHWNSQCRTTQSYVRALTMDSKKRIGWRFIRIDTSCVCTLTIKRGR

In the case of “TrkB-Fc (Sigma T8694) (from UniProt P15209 32-429) (Fc fusion)”, the PathHunter pTrkB assay in U2OS TrkB/p75NTR cells, 300 pM BDNF in assay [1] amounted to 4.4 nM. In addition, in assay [2], the PathHunter pTrkB assay in U2OS TrkB/p75NTR cells, 300 pM BDNF was found to be 24 nM and the pERK assay in U2OS TrkB/p75NTR cells, 150 pM BDNF came to 7.6 nM.
